Source: patent US20250154277A1 (CONCEPT TO MEDICINE BIOTECH, published 2025)
Where “and” joins values, the source holds several entries; their conditions need not be identical. Equal entries are not always repeated.

T1: human 5T4-His protein (human, UniProt Q13641 32-355)
T1 construct: also called recombinant 5T4 protein (human 5T4-his tag); human 5T4 protein; not shown: His tag
T1 sequence (looked up): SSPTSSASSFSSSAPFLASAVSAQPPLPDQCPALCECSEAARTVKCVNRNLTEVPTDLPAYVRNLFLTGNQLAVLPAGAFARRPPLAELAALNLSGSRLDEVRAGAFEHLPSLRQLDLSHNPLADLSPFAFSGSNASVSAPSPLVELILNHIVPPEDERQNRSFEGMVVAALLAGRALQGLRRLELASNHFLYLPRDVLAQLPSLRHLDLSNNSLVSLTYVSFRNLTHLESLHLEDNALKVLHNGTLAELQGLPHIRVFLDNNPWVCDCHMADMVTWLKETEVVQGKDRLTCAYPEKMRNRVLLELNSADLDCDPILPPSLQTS

T2: human 5T4 expressed on cells (human, UniProt Q13641 32-420)
T2 construct: whole, on cells; also called CHOK1-hu5T4; CHO-K1-expressing human 5T4
T2 sequence (looked up): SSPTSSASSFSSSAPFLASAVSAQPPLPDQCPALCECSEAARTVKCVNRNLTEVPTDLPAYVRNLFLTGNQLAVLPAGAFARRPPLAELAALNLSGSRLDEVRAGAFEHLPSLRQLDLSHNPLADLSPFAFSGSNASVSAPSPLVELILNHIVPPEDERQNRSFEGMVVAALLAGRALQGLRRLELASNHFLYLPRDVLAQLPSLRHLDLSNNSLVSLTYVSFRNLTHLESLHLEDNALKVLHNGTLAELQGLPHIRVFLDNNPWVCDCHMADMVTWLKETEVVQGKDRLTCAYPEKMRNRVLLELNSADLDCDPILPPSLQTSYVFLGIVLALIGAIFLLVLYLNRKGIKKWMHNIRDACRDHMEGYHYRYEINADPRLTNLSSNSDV

T3: cynomolgus 5T4 protein (cynomolgus monkey, UniProt Q4R8Y9 35-355, limits assumed)
T3 construct: Coated protein in ELISA; the screening step names a cyno 5T4-His protein; also called cyno 5T4; recombinant cyno 5T4-His protein
T3 sequence (looked up): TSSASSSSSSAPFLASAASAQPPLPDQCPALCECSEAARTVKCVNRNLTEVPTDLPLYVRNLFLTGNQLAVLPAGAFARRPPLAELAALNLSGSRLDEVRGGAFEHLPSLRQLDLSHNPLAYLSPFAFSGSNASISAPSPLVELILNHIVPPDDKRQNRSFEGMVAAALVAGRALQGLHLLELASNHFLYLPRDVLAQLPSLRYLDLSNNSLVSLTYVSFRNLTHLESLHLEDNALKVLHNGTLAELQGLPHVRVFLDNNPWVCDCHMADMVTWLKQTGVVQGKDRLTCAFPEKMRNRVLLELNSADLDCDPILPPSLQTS

B1: 393E9 chimeric antibody (antibody, V domains shown)
VH: EVKLVESGGGLVQPGGSLSLSCAASGFTFTDYYMSWVRQPPGKALEWLGFIRNKGNGYTTENSASVKGRFTISRDNSQSILYLQMNALRAEDSATYYCARYRGNPHYAMDYWGQGTSVTVSS
VL: DIVLTQFPASLAVSLGQRATISCRASESVEFYGTSFLQWYQQKPGQPPKLLIYGASNVESGVPARFSGSGSGTDFSLSIHPVEEDDIAMYFCQQSRKVPSTFGGGTKLEIK
notes: chimeric mAb
B2: 267B5 chimeric antibody (antibody, V domains shown)
VH: DVQFQESGPGLVKPSQSLSLTCSVTGYSITSSYYWNWIRQFPGDKLEWMGYISYDGSNNYNPSLKNRISITRDTSKKQFFLKLNSVTTEDTATYYCARSWDGGYAMDNWGQGTSVTVSS
VL: SIVMTQTPKFLLVSAGDRVTITCKASQSVSNDVAWYQQKPGQSPKLLIYFASNRYTGVPDRFTGSGYGTVFTFTISTVQADDLAVYFCQQDYTSPWTFGGGTRLEIK
notes: chimeric mAb
B3: 257F1 chimeric antibody (antibody, V domains shown)
VH: QVLLQQSGAEVARPGASVKLSCKASGYTFTSYGLNWLRQRTGQGLEWIGEIYPRSENTHYNEKFKGKATLTADKSSSTAYMELRSLTSEDSAVYFCARGDWDFDHWGQGTTLTVSS
VL: EILLTQSPAIIPASPGEKVTITCSASSSVSYMNWYQQKPGSSPKIWIYGISNLASGVPARFSGSGSGTFFSFTINSMEAEDVATYYCQQRSSYPRTFGGGTKLEIK
notes: chimeric mAb
B4: 159D5 chimeric antibody (antibody, V domains shown)
VH: DVQLVESGGGLVQPGGSRKLSCTASGFTFSNFGMHWVRQAPETGLEWVAYISSGSSTFYYADSVKGRFTISRDNPKNTLFLQMTSLRSEDTAMYFCARSPAYYRYGLDYWGQGTTLTVSS
VL: DIVLTQSPASLAVSLGQRATISCRASQSVSSSTFSYMHWYQQKPGQPPKLLIKSSSNLESGVPARFSGSGSGTDFTLNIHPVEEEDTATYYCQHSWEIPYTFGGGTKLEIK
notes: chimeric mAb

Columns and labels:
human 5T4-His protein [1] = target: T1, human 5T4-His protein; assay: competitive ELISA, coated human 5T4, vs naptumomab-biotin
human 5T4-His protein [2] = target: T1, human 5T4-His protein; assay: ELISA, coated 5T4-His
Description: To evaluate the binding activity of 393E9 humanized antibodies to human 5T4, the 393E9 chimeric antibody (393E9-C) along with 393E9 humanized mAbs were subjected to ELISA test.
(§1) Briefly, microtiter plates were coated with human 5T4-His protein at 1 μg/ml in PBS, 100 μl/well at 4° C. overnight, then blocked with 150 μl/well of 1% BSA. 4-fold dilutions of antibodies starting from 20 nM were added to each well and incubated for 1 hour at 37° C. The plates were washed with PBS/Tween and then incubated with Goat Anti-Human IgG-HRP for 30 mins at 37° C. After washing, the plates were developed with TMB substrate and analyzed by spectrophotometer at OD 450 nm. As shown in FIG. 12 and Table 9, most of the humanized antibodies bound to human 5T4 with high activity.

human 5T4-His protein [3] = target: T1, human 5T4-His protein; assay: SPR Biacore, Protein A capture
In short: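 Antibodies captured on a Protein A chip on Biacore T200; serial dilutions of His-tagged human 5T4 injected 2-3 min at 30 μl/min, dissociation 360-1000 s.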

human 5T4-His protein [4] = target: T1, human 5T4-His protein; assay: SPR Biacore, Protein A capture; remark: listed apart in the source
Description: (§2) The binding of the 393E9 humanized antibodies to recombinant 5T4 protein (human 5T4-his tag) was tested with Biacore using a capture method. The mAbs were captured using Protein A chip. A serial dilution of human 5T4-his tag protein was injected over captured antibody for 3 mins at a flow rate of 30 μl/min. The antigen was allowed to dissociate for 280-800 s. All the experiments were carried out on a Biacore T200. Data analysis was carried out using the Biacore T200 evaluation software.

[5] = target: T2, human 5T4 expressed on cells; assay: flow cytometry, CHOK1-hu5T4 cells
human 5T4-His protein [6] = target: T1, human 5T4-His protein; assay: ELISA, coated antigen
cynomolgus 5T4 protein = target: T3, cynomolgus 5T4 protein; assay: ELISA, coated antigen
human 5T4-His protein [7] = target: T1, human 5T4-His protein; assay: competitive ELISA, coated human 5T4, vs 267B5-biotin
human 5T4-His protein [8] = target: T1, human 5T4-His protein; assay: as above; remark: listed apart in the source
human 5T4-His protein [9] = target: T1, human 5T4-His protein; assay: competitive ELISA, coated human 5T4, vs 257F1-biotin
human 5T4-His protein [10] = target: T1, human 5T4-His protein; assay: as above; remark: listed apart in the source
Description: Competitive ELISA was carried out to classify the test 5T4 mAbs based on the binding epitope to human 5T4.
Briefly, microtiter plates were coated with human 5T4 proteins at 0.5 μg/ml in PBS, 100 μl/well at 4° C. overnight, then blocked with 150 μl/well of 1% BSA. Serial dilutions of chimeric antibodies as well as 0.2 ug/ml biotin-conjugated reference mAb were added to each well and incubated for 1 hour at RT. The plates were washed with PBS/Tween and then incubate with streptavidin-HRP for 15 mins at RT. After washing, the plates were developed with TMB substrate and analyzed by spectrophotometer at OD 450 nm. According to the competition performance with reference mAbs, the 5T4 mAbs were divided into four bins (Bin A-D), as shown in FIG. 3-8 and Table 4.

human 5T4-His protein [11] = target: T1, human 5T4-His protein; assay: as above; remark: listed apart in the source
human 5T4-His protein [12] = target: T1, human 5T4-His protein; assay: ELISA, coated 5T4-His; remark: listed apart in the source
Description: To evaluate the binding activity of 159D5 humanized antibodies to human 5T4, the 159D5 chimeric antibody along with 159D5 humanized mAbs were subjected to ELISA test.
as §1, with “10%” for “1%”, “Serial” for “4-fold”, “antibodies” for “antibodies starting from 20 nM”, “14” for “12”, “12,” for “9,”

human 5T4-His protein [13] = target: T1, human 5T4-His protein; assay: competitive ELISA, coated human 5T4, vs 159D5-biotin
human 5T4-His protein [14] = target: T1, human 5T4-His protein; assay: as above; remark: listed apart in the source
human 5T4-His protein [15] = target: T1, human 5T4-His protein; assay: SPR Biacore, Protein A capture, 50 nM 5T4-His
Description: as §2, with “159D5” for “393E9”, “50 nM” for “A serial dilution”, “600” for “280-800”

human 5T4-His protein [16] = target: T1, human 5T4-His protein; assay: competitive ELISA, coated human 5T4, vs 159D5-biotin; remark: listed apart in the source

Row | Binder | Kd (human 5T4-His protein [3]) [nM] | koff (human 5T4-His protein [3]) [s⁻¹] | kon (human 5T4-His protein [3]) [M⁻¹ s⁻¹] | EC50 (human 5T4-His protein [6]) | EC50 (cynomolgus 5T4 protein) | further results
1 | B1 | 0.0565 | 0.000183 | 3.24e+06 | 0.37 nM | 0.14 nM | IC50 (read off the curve) (human 5T4-His protein [1]): ~5 nM; EC50 (human 5T4-His protein [2]): 0.27 nM and 0.13 nM and 0.23 nM; Kd (human 5T4-His protein [4]): 0.463 nM; koff (human 5T4-His protein [4]): 0.000107 s⁻¹; kon (human 5T4-His protein [4]): 231000 M⁻¹ s⁻¹; EC50 (read off the curve) [5]: 5 nM
2 | B2 | 1.62 | 0.000255 | 158000 | 0.31 nM | 0.17 nM | IC50 (read off the curve) (human 5T4-His protein [7]): ~5 nM; IC50 (read off the curve) (human 5T4-His protein [8]): ~10 nM
3 | B3 | 1.48 | 0.000275 | 186000 | 0.56 nM | 0.11 nM | IC50 (read off the curve) (human 5T4-His protein [9]): ~8 nM; IC50 (read off the curve) (human 5T4-His protein [10]): ~10 nM; IC50 (read off the curve) (human 5T4-His protein [11]): ~7 nM
4 | B4 | 0.206 | 0.00024 | 1.16e+06 | 0.24 nM and 0.2 nM and 0.39 nM | 0.18 nM and 0.19 nM and 0.2 nM and 0.11 nM | EC50 (human 5T4-His protein [12]): 0.13 nM; IC50 (read off the curve) (human 5T4-His protein [13]): ~5 nM; IC50 (read off the curve) (human 5T4-His protein [14]): ~5 nM; Kd (human 5T4-His protein [15]): 0.618 nM; koff (human 5T4-His protein [15]): 0.000204 s⁻¹; kon (human 5T4-His protein [15]): 330000 M⁻¹ s⁻¹; IC50 (read off the curve) (human 5T4-His protein [16]): ~4 nM
